Patent US20090311248A1

Target: E1s (HCV E1 envelope protein, aa 192-326 of the HCV polyprotein) (Hepatitis C virus (HCV))
Test: coating ELISA, E1s at 0.5 ug/ml, hybridoma supernatant

O.D. value (450-595 nm): > 2 O.D.
Substance: 4G2 (antibody)
